# Laboratory results reported in paper PMC5847377 (Cell, 2017).
# Tests used:
# [1] = target: ANG variant H13A (human, UniProt P03950 25-147, H13A); test: ELISA
# [2] = target: Angiogenin (ANG), human recombinant (human, UniProt P03950 25-147); test: equilibrium dialysis
# Angiogenin (ANG), human recombinant, sequence (P03950 25-147): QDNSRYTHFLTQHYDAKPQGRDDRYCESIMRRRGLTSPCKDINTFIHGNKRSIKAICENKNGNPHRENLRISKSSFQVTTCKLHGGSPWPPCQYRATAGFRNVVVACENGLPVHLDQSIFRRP
# ANG variant H13A, sequence (P03950 25-147 H37A): as the sequence (P03950 25-147) above, with H13A counted along it
binder,measurement,setting,value
TSSEYDSILVEINKR [PLXNB2 peptide hplb2-15-06],binding result,[1],binds
same,binding result,[2],binds
